Measured values reported in article PMC12095580, “Wnt signalosome assembly is governed by conformational flexibility of Axin and by the AP2 clathrin adaptor” (Nature Communications, 2025).

B1: LRP6-GFP [not stated] / FLAG-AP2μ [not stated] (parent complex)
chain 1: APLLLYANRRDLRLVDATNGKENATIVVGGLEDAAAVDFVFSHGLIYWSDVSEEAIKRTEFNKTESVQNVVVSGLLSPDGLACDWLGEKLYWTDSETNRIEVSNLDGSLRKVLFWQELDQPRAIALDPSSGFMYWTDWGEVPKIERAGMDGSSRFIIINSEIYWPNGLTLDYEEQKLYWADAKLNFIHKSNLDGTNRQAVVKGSLPHPFALTLFEDILYWTDWSTHSILACNKYTGEGLREIHSDIFSPMDIHAFSQQRQPNATNPCGIDNGGCSHLCLMSPVKPFYQCACPTGVKLLENGKTCKDGATELLLLARRTDLRRISLDTPDFTDIVLQLEDIRHAIAIDYDPVEGYIYWTDDEVRAIRRSFIDGSGSQFVVTAQIAHPDGIAVDWVARNLYWTDTGTDRIEVTRLNGTMRKILISEDLEEPRAIVLDPMVGYMYWTDWGEIPKIERAALDGSDRVVLVNTSLGWPNGLALDYDEGKIYWGDAKTDKIEVMNTDGTGRRVLVEDKIPHIFGFTLLGDYVYWTDWQRRSIERVHKRSAEREVIIDQLPDLMGLKATNVHRVIGSNPCAEENGGCSHLCLYRPQGLRCACPIGFELISDMKTCIVPEAFLLFSRRADIRRISLETNNNNVAIPLTGVKEASALDFDVTDNRIYWTDISLKTISRAFMNGSALEHVVEFGLDYPEGMAVDWLGKNLYWADTGTNRIEVSKLDGQHRQVLVWKDLDSPRALALDPAEGFMYWTEWGGKPKIDRAAMDGSERTTLVPNVGRANGLTIDYAKRRLYWTDLDTNLIESSNMLGLNREVIADDLPHPFGLTQYQDYIYWTDWSRRSIERANKTSGQNRTIIQGHLDYVMDILVFHSSRQSGWNECASSNGHCSHLCLAVPVGGFVCGCPAHYSLNADNRTCSAPTTFLLFSQKSAINRMVIDEQQSPDIILPIHSLRNVRAIDYDPLDKQLYWIDSRQNMIRKAQEDGSQGFTVVVSSVPSQNLEIQPYDLSIDIYSRYIYWTCEATNVINVTRLDGRSVGVVLKGEQDRPRAVVVNPEKGYMYFTNLQERSPKIERAALDGTEREVLFFSGLSKPIALALDSRLGKLFWADSDLRRIESSDLSGANRIVLEDSNILQPVGLTVFENWLYWIDKQQQMIEKIDMTGREGRTKVQARIAQLSDIHAVKELNLQEYRQHPCAQDNGGCSHICLVKGDGTTRCSCPMHLVLLQDELSCGEPPTCSPQQFTCFTGEIDCIPVAWRCDGFTECEDHSDELNCPVCSESQFQCASGQCIDGALRCNGDANCQDKSDEKNCEVLCLIDQFRCANGQCIGKHKKCDHNVDCSDKSDELDCYPTEEPAPQATNTVGSVIGVIVTIFVSGTVYFICQRMLCPRMKGDGETMTNDYVVHGPASVPLGYVPHPSSLSGSLPGMSRGKSMISSLSIMGGSSGPPYDRAHVTGASSSSSSSTKGTYFPAILNPPPSPATERSHYTMEFGYSSNSPSTHRSYSYRPYSYRHFAPPTTPCSTDVCDSDYAPSRRMTSVATAKGYTSDLNYDSEPVPPPPTPRSQYLSAEENYESCPPSPYTERSYSHHLYPPPPSPCTDSS
chain 2: MIGGLFIYNHKGEVLISRVYRDDIGRNAVDAFRVNVIHARQQVRSPVTNIARTSFFHVKRSNIWLAAVTKQNVNAAMVFEFLYKMCDVMAAYFGKISEENIKNNFVLIYELLDEILDFGYPQNSETGALKTFITQQGIKSQHQTKEEQSQITSQVTGQIGWRREGIKYRRNELFLDVLESVNLLMSPQGQVLSAHVSGRVVMKSYLSGMPECKFGMNDKIVIEKQGKGTADETSKSGKQSIAIDDCTFHQCVRLSKFDSERSISFIPPDGEFELMRYRTTKDIILPFRVIPLVREVGRTKLEVKVVIKSNFKPSLLAQKIEVRIPTPLNTSGVQVICMKGKAKYKASENAIVWKIKRMAGMKESQISAEIELLPTNDKKKWARPPISMNFEVPFAPSGLKVRYLKVFEPKLNYSDHDVIKWVRYIGRSGIYETRC

Variants of: B1
Test: coIP (FLAG IP, α-GFP blot densitometry)

Variant	ratio to parent
chain 1 Y1498A, chain 1 Y1501A	0.58
chain 1 Y1503A, chain 1 F1506A	0.31
chain 1 Y1503A	0.21
chain 1 Y1498A, chain 1 Y1501A, chain 1 Y1503A, chain 1 F1506A	0.05
chain 1 S1560A	0.69
